Laboratory results from the DeepSol protein solubility set.

experiment: soluble on expression in E. coli; label from the status in PepcDB or PDB records

| Sequence | soluble on expression in E. coli |
| --- | --- |
| MGSDKIHHHHHHMKELENYYGRLFTKYQLTAKEREIAEKVPSITKKNNCFRCGTTFKEENKLPNDAYYCRACLLLGRVRSDEKLYHFPQKDFPITKCLKWKGQLTDWQQRISDGLVANVENNRATLVHAVTGAGKTEMIYHTVASVIDKGGAVCLASPRIDVCIELYKRLQNDFSVPISLLHGESEPYFRTPLVVATTHQLLKFYQAFDLVLIDEVDAFPYADNPMLYQAADNAVKEAGVQVFLTATSTDELDKKVRTGKLSRLSLPRRFHGNPLVVPQKVWFSKFDDTLKKNRLVPKLKKAIEEQRKSGFPLLIFVPEISKGQEFTKIMKKTFPEETIGFVSSQTENRLEIVEGFRKREITVLISTTILERGVTFPCVDVFVVQANHYLYTASSLVQIAGRVGRSIERPTGLLQFYHEGSTGAIEKAIAEIKQMNKEAGYV | not soluble |
| MGSDKIHHHHHHMKGLDYCRQKAEESRSSFLSGFRFLTQEKQDAVTVLYAFCRELDDVVDECSNPDVAQATLNWWRGDLDNAFGGAMPEHPVNQALRQVKETFKLPKYELEALIDGMQMDLVQARYGSFEELKLYCRRVAGVVGCLIARILGFSDGKTLEYADKMGLALQLTNIIRDVGEDARRGRIYLPMEEMQRFDVPASVILQCSPTGNFAELMAFQIKRARETYREAVSLLPDADKKAQKVGLVMAAVYYALLNEIDRDGAQNVLKYKIALPSPRKKRIALKTWLFGFKPRPGTPERA | not soluble |
| MGSDKIHHHHHHMKGQSKKALTKKRIEEAALSLFREQGYDSTTVQEITAKAQVAKGTFFNYFPTKESIMRSLAEDRLHSVSVYMEQRHIQSLPILKKIRTYLSYLLEEYDSHPKLTVQIWRHVVEFEEMILSHWVVLLEEAKERGELSEDFPIHVWSHIIHSHVCYGLQMSHLAPTKAQLLAKVMPLLEESLSAIIQKRGNSAMKKLVVLGGGYGGMRILQRLLPNDLPSDWEITLVDRLPYHCLKTEYYALAAGTASDHHLRVSFPEDPRLSTRYGSVSSIDLASKTVLFEEGEPLTYDTLIIGLGCEDKYHGVPGAKEHTYSIQSMEATRRTYEALNNVRPEGVVTIVGAGLSGVELASELRESRPDLTIKLLDRGDIILSMFPRRLSNYVQNWFIDHGVDIINKSNVTKVEEGAVYNHDERIESDAIIWTAGIQPNVVVRNLDVEKDQQGRVVLTPHHHLPTDEDVFVVGDCASLPHAPSAQLAEGQAEQIVTVLKKRWNNESLPDEFPRIKLKGVLGSLGKKHGFGLMGERTLIGRVPRVLKSGVLWMYKYHSG | not soluble |
| MGSDKIHHHHHHMKIAIEAQRIFRKEKHGMDYVALETIRELQKIDQQNEYFILVSPGDDVCLQESANMHIVTVNWPSYPLWEQIGLPLALKKIKPDLLHCTSNTAPVHGNIPLVLTLHDIIFLEKKQGKNQSMYQRLGRFYRKIIVPQILTKCKRIITVSHFECNRISHFLHIDKQLLVAVYNGYSQHFIPIRNAQAITARYIKNHPYLFFLGNTDPKKNTARVLQAYGIYLKKSSQPLPLLIADLKEEIIDEYLNREGLQEIKKMLYHPGYIPNTELPAVYSGASVFIYTSLRESFGIPILEAMACGTPVITSTTSAMPEIAGPEGILVNPFEPEEIASALLHLEENAEFYQSQTAYGLERVRRFSWENTAREILNIYKEILA | not soluble |
| MGSDKIHHHHHHMKIAQIAPLTESVPPKLYGGTERVVSYITEALVDLGHDVTLFASGDSVTNAKLEAVWPRALRLDPGIRDRVAPHMLLMELVRRQAENFDVLHFHLDYYSFSVFKRQETPFVTTMHGRLDLPEQQPVFDTFNTAPVISISNAQRHPLPQARWLTTVYHGLPEQLYTPQPVEQKYLAFLGRISPEKRVDTAIRIAGRCGMPIRIAAKVDAADREYFERDIRPLLDLPYVEFIGEIADHQKAEFLSGAHALLFPIDWPEPFGLVMIEAMACGTPVIAFNRGSVPEVLEDGVTGFIVEDEIGAVAAVNRLHKMPRAGVRQRFEERFTSHRMAQQYVNAYQSVIRAQKRSRFKVIDTSGS | not soluble |
| MGSDKIHHHHHHMKIAVLSGKGGTGKTLVAVNLAAAAQRSTYIDCDVEEPNGHLFFKPEILQEEEITVKIPRVEDTLCQGCRRCVDFCQFNALAYIKEKLLVFEDVCHSCGGCILLCPEKALTEQEKGIGKVQKGLSDQVRVYTGVLNIGEVSGVPIIKKLLNENKSDKNEPESDQLTFIDCPPGSACSVMESIKDADYCLLVAEPTLFGVHNLNMVHELVKIFNKPCGVVLNKSLEGENPAETFCLEKNIKILSRLPFDHELGRLNSNAEIAVRKSEPYKALFSALLETVTKEVQHETAAYS | not soluble |
| MGSDKIHHHHHHMKIAYYLPSLQAPGGIERIVTFKANYFAEHFEGYDITIITSEQMGKAPHFPLSPKVKHIDLGVSFDLPYSQSIVSKVLKYPFRYYRFKQRLSNLLNELKPDITISTMRRELNFITKLKDGSLKIGEFHVSRYAYGAEALKRKSPIVNMIKKRWANRFVKNLSKLSRVIILTSEGAKDWPELTNISIIPNPISTPVEGKQTDILSHNAIAVGRYAPQKGFDMLIPAWSIVAQRHPDWKLHIYGEGDLKEKFTKLIDELQLNNNCLLHHTVSNIAEKYCMSSIFVLSSRYEGFGLVLAEAMSCGIPCVSFDCPHGPSNIIKDHEDGLLVEKENIKELADKICYLIENENVRIKMGHKARENVKRFLPENVMPQWKNLFESLTYSSK | not soluble |
| MGSDKIHHHHHHMKIGILTFHDAHNYGAMLQCYALQQFLFKKGYNVEVIDYRPAFYQKQYHRHSLCPWIGKNPVRTMKSIYYNYYLFNKRCAAFSDFHNRHLYMSIPATRTNIPQSYDAYIVGSDQIWNPQLTNGFHDVYFCDFCFPKGKSRFIAYAPSMEISRLSTQEAEYLTRVLNCFDALSVRESSLIPILQPLVSQPIQQVLDPTLLLDATAWNPLIGKCPKNRPYVVLYQVRENPAVRMKAFEIAQSIGGIVVELTARIDCHYSTKYQTASPADFVTYIRYATYVVTTSFHGTAFSLIFNRPFYTFSLGDNFDSRSASLLESVNLTERLVCPDEQFEISLIDFKQANKRLKHLRKQSCDFLRQSLHERQEQ | not soluble |
| MGSDKIHHHHHHMKIIPVFLPYAGCKKRCVFCDQIKATGQAKVPSLDDIARIIEEYSRTSNEYELGFYGGTFTGLSEEKMEEYLRFVKRFPVVKSVRVSTRPDEINERKLKILKKYGVNVIEIGVQSFLDEVLERSKRGYTSEEAEGACKLIKKNGFVLSVHLMVGLPGSDRRGEILSALRTVECGADMVRIHPTLVFEGTELHRMMEEGEYTPLNVEEAVDVCSDLVCIFEGWGTKVIRIGYHVPVELRKYVVAGPIDPSLGDRVRRTTMKKVIESLKPSRIVVPKNYLVWFEEAKVEVGDEFRFDDLSYADALFFTGKEVVERWLNG | not soluble |
| MGSDKIHHHHHHMKILLHMCCGPCAAYPVEQLRGQGAAVTGYWFNHNIHPYQEYMRRRDTVRAYAEKVRLDVIWRDEYRLEEFLAAVAQNPDDRCFYCYFSRLDAVAAAAAAGGFDAFSSTLLYSRYQKHDAIRDCAERAAERHGVAFHYDDYRRGWQEGIRLSKELGLYRHQYCGCIYSEKERYHPREGAK | not soluble |
| MGSDKIHHHHHHMKILVYGINYSPELTGIGKYTGEMVAWMAQEGHEVRVITAPPYYPQWKVGERYSAWRYRREEGEATVWRCPLYVPKQPSTLKRLLHLGSFALSSFFPLMAQRRWKPDRIIGVVPTLFCTPGMRLLATLSGARTVLHIQDYEVDAMLGLGMAGKGKRGSVARLATAFERSALRNVDNVSTISRSMMNKAREKGVAAEKILFFPNWSEVARFQDVNDADVTALRQQLGLPEGKKIVLYSGNIGEKQGLEKVIDAAERLRDRPLIFAIVGQGGGKARLENMARERGLANIKFLPLQPYDALPALLKMGDCHLVVQKRGAADAVLPSKLTNILAVGGNAVITAEPHTELGQLCARYPGIAVCVEPESTDALVNGISQALAMPKNNTTAREYAERTLNKENVLRQFIADIRG | not soluble |
| MGSDKIHHHHHHMKILYISNFNLPDFQNDMIFHGLRSVFGNDCIDSNEAWYMYEDFRNYWNVRVPENGMSYGRGFTLYGKLPKIDIDRKNIYEKIKDKYFDKIVYGSITRNNMFLDEVISIYEKNNIIMIDGEDNTEINQNFFGKGIYFKRELIYEPTSYLKPIGFCIPNETIVNNISIKEKDYGHVIPGDPETYIYTDEVSYFEDYRKSYFGVTMKKGGWDCLRHYEILMNGCIPYFLNLEQCPKYTMTHFPKNIILDVINKINTESNILNFYNEYVDILLEYTRNKLTTRKVIESIL | not soluble |
| MGSDKIHHHHHHMKIQSLFFTLYGDYVKDSGGTISSKSLIVIFKEFGFSEGAIRAGLHRMKKAGLIVGIKGENRKVSYKLSEKGMLRLLEGTRRVYEKVRRRWDNKWRIVVYNIPENNRELRDKLRRELKWLGFGMLAQSTWISPNPIEDTLKNFINDHYGSSNGIQVDIFVANYLGEPKGLVEKCWNLSEVEQAYRAFLEKWTGVLEKVSSLKSNEAFVTRILLVHEYRKFLNIDPDLPEDLLPPNWIGYTAYDLFMKLREELTPKANEFFYKVYEP | not soluble |
| MGSDKIHHHHHHMKISLGPIHYYWSKENIEQFYRRAEHWPVDIVYLGETVCAKRRALRSADWLDIAARLTDAGKEVVLSTLALLEANSDLLQLERICANTHYLVEANDMSAVHLLAGRGPFVIGPHINCYNAETLSLLADLGGRRWIPPVELPATTIAMLQNTRPETMETEAFAYGYLPLSFSARCFTARADNVGKDACELRCIKDPEGRALFTQEQERLFTINGIQLQSGIPCNLLNETVAMSEMGMDIVRISPQLTATESVIRAFHAVLNGEISPPVEYGSPACNGYWYGKPGMQFSPVQGH | not soluble |
| MGSDKIHHHHHHMKISLGPLLYCWEKQQVIDFYQQVANSQIPLVYLGEAVCSRRRELKWGDYLELAKMLKSAGKDVVLSTLALIEAPSEYTELKRQVDNGEFMIEANDMAAVYLAKEHKQPFVCGASINNYNRASLDILQRLGMQRFVMPVELSKTWLSQVVDKKPSFEVEVLGHGYLPLAHSARCFTARHSQLAKDSCETVCRQYSKGLLAQTQEAQPLLRLNGIQTQSASCVDLRSEISAMVKIGVDVFRVSPSSLACIAKADALVEALNSGAMDAQYPLSDEHCNGYWFGEAGLKSLS | not soluble |
| MGSDKIHHHHHHMKITQIRNATLQLEFGGKTFLIDPMLAPKATYPGFPGTANDHLRNPLVELPLPMATILDVDAVIVTHTHLDHWDDAAIKAIPKTMPIFSQNAQDADLIRRAGFISVRVLGEQMEYDGITLIKTAGQHGSDETYANPQLAERLGEVCGIVFQHANEKSFYLAGDTVWNQHVIDVLTDYSPDVVALNIGNAFIPSFGSIIMGKEDVRRVHQLVPNAAIVATHMEAVNHCLLSRAELRDYLHEEKLQSIAHVPNDGESVQF | not soluble |
| MGSDKIHHHHHHMKIVKISPRGYCYGVVDAMVIARNAALDTSLPRPIYILGMIVHNKHVTDAFEEDGIITLDGPSRLDILDKIDSGTVIFTAHGVSPEVKQRAKEKGLTTIDATCPDVTKTHDLIEAKKAEGYHVIYIGKKNHPEPEGAVGIAPDIVHLIERADDLKTLEIPTDKILVTNQTTMSQWDVQHLMEDIQKKFPTAEFHKEICLATQVRQEAVAKQADVADLTIVVGDPKSNNSNRLAQVSQEIAGTKAYRVADVSEIKLEWLQGVENVAVTAGASTPTPITKEVIAFLEQYDPMNPATWERVRKVPLQKILPRVKVKKEQ | not soluble |
| MGSDKIHHHHHHMKKAHVIVVGNEKGGTGKSTISMHLIVSLLDKGLSVGSIDIDARQATLSRYIGNRAARQDRAELNLPIPEHIPIPPSGDAQADCARLDEVFKDFAARHDVVVIDTPGSDHPMSRLGHSFADTLVTPLNDSLVDLDVLALVEPGTMKIRRPSHYAEMVWETKKTRAMRGEKAVVDWIVLRNRLSNLDARNKRDMEKLLAELSKRVGFRVIPGLGERVIYRSMFLEGLTLVDLKKKPLGFDFNMSHVAARQELRTLVDAIGLGLPATA | not soluble |
